According to publication PMC9352680, “A comprehensive thermodynamic model for RNA binding by the Saccharomyces cerevisiae Pumilio protein PUF4”:

T1: PUF4 RNA-binding domain (Saccharomyces cerevisiae, UniProt P25339 537-888)
T1 sequence: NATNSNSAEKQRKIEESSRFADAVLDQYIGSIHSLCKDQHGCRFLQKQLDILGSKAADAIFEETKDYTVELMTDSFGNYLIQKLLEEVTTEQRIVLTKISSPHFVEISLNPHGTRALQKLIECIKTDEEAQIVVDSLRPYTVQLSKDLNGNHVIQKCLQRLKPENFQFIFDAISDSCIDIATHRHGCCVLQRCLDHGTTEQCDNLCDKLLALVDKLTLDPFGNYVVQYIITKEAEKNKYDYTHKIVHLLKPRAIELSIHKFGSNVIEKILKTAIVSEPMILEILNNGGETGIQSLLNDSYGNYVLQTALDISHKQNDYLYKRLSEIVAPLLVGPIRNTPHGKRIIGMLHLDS


Biological target: T1, PUF4 RNA-binding domain
Experiment: Mg; RNA-MaP; 20 mM Na-HEPES pH 7.4, 30 mM KOAc, 0.75 mM MgCl2, 0.1% Tween-20, 5% glycerol, 0.1 mg/mL BSA, 2 mM DTT; 25 C; 0.0125-409.6 nM protein
Details: tags: N-His6-TEV cleaved; C-SNAP kept, Cy3B-labelled; label: tethered on chip by stalled RNA polymerase

| Binder | Kd |
| --- | --- |
| ACAAACCGACACUAUUACCACAAAC (ssRNA) [Id_ii_S3_P4E.4_K4.3_C4.2_[T-1G]_H4.3_A4.1_F4.1_T4.2_[G10C]_[T11C]] | > 2300 nM |
| ACAAACCGACACUAUUAUUACAAAC (ssRNA) [Id_ii_S3_P4E.4_K4.3_C4.2_[T-1G]_H4.3_A4.1_F4.1_T4.2_[G10T]] | > 2300 nM |
| ACAAACCCACACUAUUAAAACAAAC (ssRNA) [Id_ii_S3_P4E.4_K4.3_C4.2_[T-1C]_H4.3_A4.1_F4.1_T4.2_[G10A]_[T11A]] | > 2300 nM |
| ACAAACCAACACUAUUAAGACAAAC (ssRNA) [Id_ii_S3_P4E.4_K4.3_C4.2_[T-1A]_H4.3_A4.1_F4.1_T4.2_[G10A]_[T11G]] | > 2300 nM |
| ACAAACCCACACUAUUAACACAAAC (ssRNA) [Id_ii_S3_P4E.4_K4.3_C4.2_[T-1C]_H4.3_A4.1_F4.1_T4.2_[G10A]_[T11C]] | > 2300 nM |
| ACAAACAUACACUAUUAGAACAAAC (ssRNA) [Id_ii_S3_P4E.4_K4.3_C4.2_[C-2A]_H4.3_A4.1_F4.1_T4.2_[T11A]] | 846 nM |
| ACAAACGCUAUAUUAUUAACACAAAC (ssRNA) [Id_ii_S3_P5E.3_K5.2_C5.2_[C-2G]_[T-1C]_H5.2_A5.1_F5.1_T5.2_[T11A]_[A12C]] | 812 nM |
| ACAAACCAACACUAUUAGCACAAAC (ssRNA) [Id_ii_S3_P4E.4_K4.3_C4.2_[T-1A]_H4.3_A4.1_F4.1_T4.2_[T11C]] | > 2300 nM |
| ACAAACCAACACUAUUAGUACAAAC (ssRNA) [Id_ii_S3_P4E.4_K4.3_C4.2_[T-1A]_H4.3_A4.1_F4.1_T4.2] | > 2300 nM |
| ACAAACCCACACUAUUAAGACAAAC (ssRNA) [Id_ii_S3_P4E.4_K4.3_C4.2_[T-1C]_H4.3_A4.1_F4.1_T4.2_[G10A]_[T11G]] | > 2300 nM |
| UCUCUUUGUAUUGUUUUCUCUU (ssRNA) [Ic_S1_P5E.1_K5.1_C5.1_H5.1_A5.1_[A7G]_F5.1_[A10T]_T5.1] | 42.9 nM |
| UCUCUUGUUAUUAUUAUCUCUU (ssRNA) [Ib_S1_P5E.1_K5.1_C5.1_H5.1_[T1G]_[G2T]_A5.1_F5.1_T5.1] | 56.7 nM |
| UCUCUUUGUAUUCUUUUCUCUU (ssRNA) [Ic_S1_P5E.1_K5.1_C5.1_H5.1_A5.1_[A7C]_F5.1_[A10T]_T5.1] | 28.6 nM |
| ACAAACAUACACUAUUAAUACAAAC (ssRNA) [Id_ii_S3_P4E.4_K4.3_C4.2_[C-2A]_H4.3_A4.1_F4.1_T4.2_[G10A]] | 740 nM |
| ACAAACCAACACUAUUAACACAAAC (ssRNA) [Id_ii_S3_P4E.4_K4.3_C4.2_[T-1A]_H4.3_A4.1_F4.1_T4.2_[G10A]_[T11C]] | > 2300 nM |
| ACAAACCCACACUAUUAAUACAAAC (ssRNA) [Id_ii_S3_P4E.4_K4.3_C4.2_[T-1C]_H4.3_A4.1_F4.1_T4.2_[G10A]] | > 2300 nM |
| ACAAACCGACACUAUUAAAACAAAC (ssRNA) [Id_ii_S3_P4E.4_K4.3_C4.2_[T-1G]_H4.3_A4.1_F4.1_T4.2_[G10A]_[T11A]] | > 2300 nM |
| ACAAACCGACACUAUUAUGACAAAC (ssRNA) [Id_ii_S3_P4E.4_K4.3_C4.2_[T-1G]_H4.3_A4.1_F4.1_T4.2_[G10T]_[T11G]] | > 2300 nM |
| ACAAACCGACACUAUUAACACAAAC (ssRNA) [Id_ii_S3_P4E.4_K4.3_C4.2_[T-1G]_H4.3_A4.1_F4.1_T4.2_[G10A]_[T11C]] | > 2300 nM |
| ACAAACCAACACUAUUAAUACAAAC (ssRNA) [Id_ii_S3_P4E.4_K4.3_C4.2_[T-1A]_H4.3_A4.1_F4.1_T4.2_[G10A]] | > 2300 nM |
| ACAAACGGUAUAUUAUUAGGACAAAC (ssRNA) [Id_ii_S3_P5E.3_K5.2_C5.2_[C-2G]_[T-1G]_H5.2_A5.1_F5.1_T5.2_[T11G]_[A12G]] | 28.9 nM |
| ACAAACCAACACUAUUACUACAAAC (ssRNA) [Id_ii_S3_P4E.4_K4.3_C4.2_[T-1A]_H4.3_A4.1_F4.1_T4.2_[G10C]] | > 2300 nM |
| ACAAACCUACACUAUUAACACAAAC (ssRNA) [Id_ii_S3_P4E.4_K4.3_C4.2_H4.3_A4.1_F4.1_T4.2_[G10A]_[T11C]] | > 2300 nM |
| ACAAACCCACACUAUUACCACAAAC (ssRNA) [Id_ii_S3_P4E.4_K4.3_C4.2_[T-1C]_H4.3_A4.1_F4.1_T4.2_[G10C]_[T11C]] | > 2300 nM |
| ACAAACCAACACUAUUAUCACAAAC (ssRNA) [Id_ii_S3_P4E.4_K4.3_C4.2_[T-1A]_H4.3_A4.1_F4.1_T4.2_[G10T]_[T11C]] | > 2300 nM |
| ACAAACCAACACUAUUACGACAAAC (ssRNA) [Id_ii_S3_P4E.4_K4.3_C4.2_[T-1A]_H4.3_A4.1_F4.1_T4.2_[G10C]_[T11G]] | > 2300 nM |
| ACAAACAUACACUAUUAAAACAAAC (ssRNA) [Id_ii_S3_P4E.4_K4.3_C4.2_[C-2A]_H4.3_A4.1_F4.1_T4.2_[G10A]_[T11A]] | 1130 nM |
